First the molecules themselves.
B1: catalytic domain of PDE3A (PDE3A^CAT), residues 640-1141 (domain or fragment, human, UniProt Q14432 640-1141, looked up)
chain: EDETECLREPLRKASACSTYAPETMMFLDKPILAPEPLVMDNLDSIMEQLNTWNFPIFDLVENIGRKCGRILSQVSYRLFEDMGLFEAFKIPIREFMNYFHALEIGYRDIPYHNRIHATDVLHAVWYLTTQPIPGLSTVINDHGSTSDSDSDSGFTHGHMGYVFSKTYNVTDDKYGCLSGNIPALELMALYVAAAMHDYDHPGRTNAFLVATSAPQAVLYNDRSVLENHHAAAAWNLFMSRPEYNFLINLDHVEFKHFRFLVIEAILATDLKKHFDFVAKFNGKVNDDVGIDWTNENDRLLVCQMCIKLADINGPAKCKELHLQWTDGIVNEFYEQGDEEASLGLPISPFMDRSAPQLANLQESFISHIVGPLCNSYDSAGLMPGKWVEDSDESGDTDDPEEEEEEAPAPNEEETCENNESPKKKTFKRRKIYCQITQHLLQNHKMWKKVIEEEQRLAGIENQSLDQTPQSHSSEQIQAIKEEEEEKGKPRGEEIPTQKPDQ
B2: biotinylated Avi-tagged PDE3A^CAT (domain or fragment, human, UniProt Q14432 640-1141, looked up)
chain: B1 chain
modifications: biotin on the Avi-tag (BirA ligase)
B3: full-length SLFN12 (natural protein, human, UniProt Q8IYM2 1-578, looked up)
chain: MNISVDLETNYAELVLDVGRVTLGENSRKKMKDCKLRKKQNESVSRAMCALLNSGGGVIKAEIENEDYSYTKDGIGLDLENSFSNILLFVPEYLDFMQNGNYFLIFVKSWSLNTSGLRITTLSSNLYKRDITSAKVMNATAALEFLKDMKKTRGRLYLRPELLAKRPCVDIQEENNMKALAGVFFDRTELDRKEKLTFTESTHVEIKNFSTEKLLQRIKEILPQYVSAFANTDGGYLFIGLNEDKEIIGFKAEMSDLDDLEREIEKSIRKMPVHHFCMEKKKINYSCKFLGVYDKGSLCGYVCALRVERFCCAVFAKEPDSWHVKDNRVMQLTRKEWIQFMVEAEPKFSSSYEEVISQINTSLPAPHSWPLLEWQRQRHHCPGLSGRITYTPENLCRKLFLQHEGLKQLICEEMDSVRKGSLIFSRSWSVDLGLQENHKVLCDALLISQDSPPVLYTFHMVQDEEFKGYSTQTALTLKQKLAKIGGYTKKVCVMTKIFYLSPEGMTSCQYDLRSQVIYPESYYFTRRKYLLKALFKALKRLKSLRDQFSFAENLYQIIGIDCFQKNDKKMFKSCRRLT

One data set addresses His6-MBP-SLFN12 (human, UniProt Q8IYM2 1-578). Nature of the data set: pull-down.
Data set [1] concerns the molecule itself. The experiment in a line: SEC-MALS.
The data set “AUC” deals with the molecule itself. Nature of the data set: AUC.
The data set “full-length SLFN12” deals with B3. The experiment in a line: BLI.
In data set [2] the target is B1. The experiment in a line: SEC-MALS. For orientation: SEC sorts molecules by how far they enter the pores of the column.
In data set [3] the target is B2. The experiment in a line: BLI. Background: In BLI a coated tip is dipped into the sample, and binding shifts an interference pattern.
Data set [4] concerns the molecule itself. Nature of the data set: SEC-MALS. The source holds these as a separate data set.

Where two headings read alike, the source gives them in different places.

As for B1, the binding result with His6-MBP-SLFN12 is listed as “binds”. The stoichiometry N (commonly the number of molecules, sites or subunits per partner or assembly) in the data set “SEC-MALS [1]” was determined as 2. In addition, the Kd – broadly, the concentration at which binding is half-saturated – in “AUC” worked out at 40 nM.
In the data set with full-length SLFN12, B2 displayed a Kd of 320 nM.
Turning to B3, the “stoichiometry N” value in data set [2] is 1 SLFN12 per PDE3A^CAT (2:2); in the data set “SEC-MALS [4]”, 2. The “KD with DNMDP” value in data set [3] was 65 nM. Moreover, in the data set “AUC”, the Kd turned out to be 870 nM.

Source of the values: PMC8285493 (Nature Communications, 2021).
